Our source for the self-cleavage values is the RNAGym collection of RNA variant scans (doi:10.7554/elife.80360).

B1: CPEB3 Ribozyme (parent)
chain: GGGGGCCACAGCAGAAGCGUUCACGUCGCGGCCCCUGUCAGAUUCUGGUGAAUCUGCGAAUUCUGCUGU

In the series the parent is B1. As to the kind of experiment: self-cleavage, relative activity (ratio to wild type); higher = more cleavage; co-transcriptional.
On to GGGGGCCACAGCAGAAGCGUUCCCGUGGCGGCCCCUGUCAGAUUCUGGUGAAUCUGCGAAUUCUGCUGU [A23C C27G], for which the self-cleavage was found to be 0.228.

Take GGGGGCCACAGCAGAAGCGUUCGCGUCGCGGCCCCUGUCAGAUUAUGGUGAAUCUGCGAAUUCUGCUGU [A23G C45A]: the self-cleavage was found to be 0.955.

GGGGGCCACAGCAGAAGCGUUCCCGUCGGGGCCCCUGUCAGAUUCUGGUGAAUCUGCGAAUUCUGCUGU [A23C C29G]: the self-cleavage turned out to be 0.485.

As for GGGGGCCACAGCAGAAGCGUUCCCGUCUCGGCCCCUGUCAGAUUCUGGUGAAUCUGCGAAUUCUGCUGU [A23C G28U], the self-cleavage turned out to be 0.2.

With GGGGGCCACAGCAGAAGCGUUCCCGUCGCGGCCCUUGUCAGAUUCUGGUGAAUCUGCGAAUUCUGCUGU [A23C C35U], the self-cleavage was 0.844.

For the variant GGGGGCCACAGCAGAAGCGUUCCCGUCGCGGCCCAUGUCAGAUUCUGGUGAAUCUGCGAAUUCUGCUGU [A23C C35A], the self-cleavage turned out to be 0.26.

As to GGGGGCCACAGCAGAAGCGUUCCCCUCGCGGCCCCUGUCAGAUUCUGGUGAAUCUGCGAAUUCUGCUGU [A23C G25C], the self-cleavage was 0.151.

With GGGGGCCACAGCAGAAGCGUUCCCUUCGCGGCCCCUGUCAGAUUCUGGUGAAUCUGCGAAUUCUGCUGU [A23C G25U], the self-cleavage came to 0.176.

In the case of GGGGGCCACAGCAGAAGCGUUCGCGUCGCGGCCCCUGUCUGAUUCUGGUGAAUCUGCGAAUUCUGCUGU [A23G A40U], the self-cleavage was 0.665.

Consider GGGGGCCACAGCAGAAGCGUUCCCGUCGCGGCCCCUGUCAGAUUCUGGUGAAUCUUCGAAUUCUGCUGU [A23C G56U], for which the self-cleavage is 0.88.

Turning to GGGGGCCACAGCAGAAGCGUUCCCGUCGCGGCCCCUGUCAGAUUCUGGUGAAUCUGCGAAUUCUGCUAU [A23C G68A], the self-cleavage is 0.969.

For GGGGGCCACAGCAGAAGCGUUCCCGUCGCGGCCCCUGUCAAAUUCUGGUGAAUCUGCGAAUUCUGCUGU [A23C G41A], the self-cleavage was 0.809.

For the variant GGGGGCCACAGCAGAAGCGUUCCCGUCGCGGCCCCUGUCACAUUCUGGUGAAUCUGCGAAUUCUGCUGU [A23C G41C], the self-cleavage turned out to be 0.725.

GGGGGCCACAGCAGAAGCGUUCCCGUCGCUGCCCCUGUCAGAUUCUGGUGAAUCUGCGAAUUCUGCUGU [A23C G30U]: the self-cleavage is 0.317.

As for GGGGGCCACAGCAGAAGCGUUCCCGUCGCGGCACCUGUCAGAUUCUGGUGAAUCUGCGAAUUCUGCUGU [A23C C33A], the self-cleavage worked out at 0.746.

Regarding GGGGGCCACAGCAGAAGCGUUCCCGUCGCGGCCCCUGUCAGAUUCUGGUGAAACUGCGAAUUCUGCUGU [A23C U53A], the self-cleavage came to 0.89.

For GGGGGCCACAGCAGAAGCGUUCGCCUCGCGGCCCCUGUCAGAUUCUGGUGAAUCUGCGAAUUCUGCUGU [A23G G25C], the self-cleavage turned out to be 0.169.

On to GGGGGCCACAGCAGAAGCGUUCCCGUCGCGGCCCCUGUCAGAUUCUGGUGAAUCUGCGAAUUCAGCUGU [A23C U64A], for which the self-cleavage was determined as 0.833.

In the case of GGGGGCCACAGCAGAAGCGUUCCCGUCGCGGCCCCUGUCAGAUUCUCGUGAAUCUGCGAAUUCUGCUGU [A23C G47C], the self-cleavage was found to be 0.961.

Regarding GGGGGCCACAGCAGAAGCGUUCCCGUCGCGGCCCCUGUCAGAUUCUAGUGAAUCUGCGAAUUCUGCUGU [A23C G47A], the self-cleavage came to 0.924.

Turning to GGGGGCCACAGCAGAAGCGUUCCCGUCGCGGCCCCUGUCAGAUUCUUGUGAAUCUGCGAAUUCUGCUGU [A23C G47U], the self-cleavage was found to be 0.993.

In the case of GGGGGCCACAGCAGAAGCGUUCCCGUCGCGACCCCUGUCAGAUUCUGGUGAAUCUGCGAAUUCUGCUGU [A23C G31A], the self-cleavage stood at 0.86.

For GGGGGCCACAGCAGAAGCGUUCCCGUCGCGGCCCCUGUCAGAUUCUGGUGAAUCUGCGUAUUCUGCUGU [A23C A59U], the self-cleavage is 0.67.

As for GGGGGCCACAGCAGAAGCGUUCCCGUCGCGGCCCCUGUCAGAUGCUGGUGAAUCUGCGAAUUCUGCUGU [A23C U44G], the self-cleavage came out at 0.946.

In the case of GGGGGCCACAGCAGAAGCGUUCCCGUCGCGGCCCCUGUCAGAUACUGGUGAAUCUGCGAAUUCUGCUGU [A23C U44A], the self-cleavage was 0.936.

With GGGGGCCACAGCAGAAGCGUUCCCGUCGCGGCCCCUGUCAGAUUCUGGUGAAUCUGCGAAUUUUGCUGU [A23C C63U], the self-cleavage came out at 0.969.

As to GGGGGCCACAGCAGAAGCGUUCCCGUCGCGGCCCCUGUCAGAUUCUGGUGAAUAUGCGAAUUCUGCUGU [A23C C54A], the self-cleavage is 0.849.

Consider GGGGGCCACAGCAGAAGCGUUCGCGUCGCGGGCCCUGUCAGAUUCUGGUGAAUCUGCGAAUUCUGCUGU [A23G C32G], for which the self-cleavage stood at 0.337.

Turning to GGGGGCCACAGCAGAAGCGUUCCCGUCGCGGCCCCUGUCAGAUUCGGGUGAAUCUGCGAAUUCUGCUGU [A23C U46G], the self-cleavage amounted to 0.962.

Turning to GGGGGCCACAGCAGAAGCGUUCCCGUCGCGGCCCCUGUCAGAUUCCGGUGAAUCUGCGAAUUCUGCUGU [A23C U46C], the self-cleavage worked out at 0.959.

Take GGGGGCCACAGCAGAAGCGUUCGCGUCCCGGCCCCUGUCAGAUUCUGGUGAAUCUGCGAAUUCUGCUGU [A23G G28C]: the self-cleavage turned out to be 0.13.

As to GGGGGCCACAGCAGAAGCGUUCGCGUCACGGCCCCUGUCAGAUUCUGGUGAAUCUGCGAAUUCUGCUGU [A23G G28A], the self-cleavage was found to be 0.136.

As to GGGGGCCACAGCAGAAGCGUUCCCGUCGCGGCCCCUGUCAGAUUCUGGUGAAUCUGCUAAUUCUGCUGU [A23C G58U], the self-cleavage came out at 0.929.

Regarding GGGGGCCACAGCAGAAGCGUUCCCGUCGCGGCCCCUGUCAGAUUCUGGUGAAUCUGCAAAUUCUGCUGU [A23C G58A], the self-cleavage was found to be 0.89.

Turning to GGGGGCCACAGCAGAAGCGUUCCCGUCGCGGCCCCUGUCAGCUUCUGGUGAAUCUGCGAAUUCUGCUGU [A23C A42C], the self-cleavage worked out at 0.92.

GGGGGCCACAGCAGAAGCGUUCCCGUCGCGGCCCCUGUCAGUUUCUGGUGAAUCUGCGAAUUCUGCUGU [A23C A42U]: the self-cleavage came out at 0.869.

For the variant GGGGGCCACAGCAGAAGCGUUCCCGUCGCGGUCCCUGUCAGAUUCUGGUGAAUCUGCGAAUUCUGCUGU [A23C C32U], the self-cleavage worked out at 0.85.

Take GGGGGCCACAGCAGAAGCGUUCGCGUCGCGGCCCUUGUCAGAUUCUGGUGAAUCUGCGAAUUCUGCUGU [A23G C35U]: the self-cleavage was 0.935.

As to GGGGGCCACAGCAGAAGCGUUCCCGUCGCGGCCCCUGUCAGAUUCUGGUGAAUCUGCGAAUUCUGGUGU [A23C C66G], the self-cleavage was 0.81.
